From article PMC10630445, “RNA recognition by Npl3p reveals U2 snRNA-binding compatible with a chaperone role during splicing”

What was measured:
[1] = biological target: T1, Npl3 RRM1/2 (Saccharomyces cerevisiae, UniProt Q01560 114-282); experiment: ITC; ITC at 40 °C in NMR buffer: RRM1 and RRM1/2 25 mM Na2HPO4, 25 mM NaH2PO4 pH 6.9; RRM2 100 mM NaCl, 20 mM NaH2PO4 pH 5.5; NMR titrations at 40 °C (U2 SL I 1D spectra at 303 K); settings: protein: recombinant; (pET28a, nickel purification)
T1 sequence: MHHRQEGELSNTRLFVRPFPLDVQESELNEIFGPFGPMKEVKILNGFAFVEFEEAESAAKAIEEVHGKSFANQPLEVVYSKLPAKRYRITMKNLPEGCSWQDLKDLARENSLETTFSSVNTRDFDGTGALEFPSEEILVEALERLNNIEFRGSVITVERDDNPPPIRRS

[2] = biological target: T2, Npl3 RRM2 (Saccharomyces cerevisiae, UniProt Q01560 193-282); experiment: as above; settings: protein: recombinant; (pET28a, nickel purification)
T2 sequence: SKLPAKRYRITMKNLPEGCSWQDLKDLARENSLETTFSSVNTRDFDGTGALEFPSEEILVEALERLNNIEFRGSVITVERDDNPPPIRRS

[3] = biological target: T3, Npl3 RRM1 (Saccharomyces cerevisiae, UniProt Q01560 114-201); experiment: NMR titration; ITC at 40 °C in NMR buffer: RRM1 and RRM1/2 25 mM Na2HPO4, 25 mM NaH2PO4 pH 6.9; RRM2 100 mM NaCl, 20 mM NaH2PO4 pH 5.5; NMR titrations at 40 °C (U2 SL I 1D spectra at 303 K); settings: protein: recombinant; (pET28a, nickel purification)
T3 sequence: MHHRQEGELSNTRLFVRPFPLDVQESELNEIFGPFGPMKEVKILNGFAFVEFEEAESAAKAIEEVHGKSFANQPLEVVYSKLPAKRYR

[4] = biological target: T4, Npl3 RRM1/2 F229A (Saccharomyces cerevisiae, UniProt Q01560 114-282, F229A); experiment: ITC; ITC at 40 °C in NMR buffer: RRM1 and RRM1/2 25 mM Na2HPO4, 25 mM NaH2PO4 pH 6.9; RRM2 100 mM NaCl, 20 mM NaH2PO4 pH 5.5; NMR titrations at 40 °C (U2 SL I 1D spectra at 303 K); settings: protein: recombinant; (pET28a)
T4 sequence: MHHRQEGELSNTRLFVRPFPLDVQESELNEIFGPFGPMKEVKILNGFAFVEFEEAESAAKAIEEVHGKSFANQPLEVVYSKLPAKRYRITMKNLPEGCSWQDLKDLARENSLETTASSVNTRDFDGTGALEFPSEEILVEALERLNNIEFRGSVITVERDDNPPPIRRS

[5] = biological target: T5, Npl3 RRM1/2 Q214A+K217A (Saccharomyces cerevisiae, UniProt Q01560 114-282, Q214A;K217A); experiment: as above; settings: protein: recombinant; (pET28a)
T5 sequence: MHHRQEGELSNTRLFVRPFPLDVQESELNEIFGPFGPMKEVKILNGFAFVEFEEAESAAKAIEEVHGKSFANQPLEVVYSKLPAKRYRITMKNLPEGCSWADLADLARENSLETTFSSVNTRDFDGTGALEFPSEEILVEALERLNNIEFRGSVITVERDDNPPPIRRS

[6] = biological target: T6, Npl3 RRM1/2 Q214A (Saccharomyces cerevisiae, UniProt Q01560 114-282, Q214A); experiment: as above; settings: protein: recombinant; (pET28a)
T6 sequence: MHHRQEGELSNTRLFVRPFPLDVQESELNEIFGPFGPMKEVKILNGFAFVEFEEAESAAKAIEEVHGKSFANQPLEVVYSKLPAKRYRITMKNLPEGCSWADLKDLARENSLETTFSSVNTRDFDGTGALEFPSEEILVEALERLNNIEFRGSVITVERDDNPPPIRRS

[7] = biological target: T7, Npl3 RRM1/2 linker GGG (Saccharomyces cerevisiae, UniProt Q01560 114-282, L195G;P196G;A197G); experiment: as above; settings: protein: recombinant; (pET28a)
T7 sequence: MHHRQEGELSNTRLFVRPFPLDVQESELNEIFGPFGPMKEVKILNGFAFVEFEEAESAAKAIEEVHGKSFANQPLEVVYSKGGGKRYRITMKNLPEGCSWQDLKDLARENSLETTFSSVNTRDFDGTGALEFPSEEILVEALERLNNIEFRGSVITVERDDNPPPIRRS

[8] = biological target: T8, Npl3 RRM1/2 F128A (Saccharomyces cerevisiae, UniProt Q01560 114-282, F128A); experiment: as above; settings: protein: recombinant; (pET28a)
T8 sequence: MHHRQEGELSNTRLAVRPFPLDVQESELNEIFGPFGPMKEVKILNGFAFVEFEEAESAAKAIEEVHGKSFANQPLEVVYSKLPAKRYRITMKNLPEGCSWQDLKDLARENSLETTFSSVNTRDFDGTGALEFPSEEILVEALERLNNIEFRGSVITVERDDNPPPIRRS

[9] = biological target: T9, Npl3 RRM1/2 R130A (Saccharomyces cerevisiae, UniProt Q01560 114-282, R130A); experiment: as above; settings: protein: recombinant; (pET28a)
T9 sequence: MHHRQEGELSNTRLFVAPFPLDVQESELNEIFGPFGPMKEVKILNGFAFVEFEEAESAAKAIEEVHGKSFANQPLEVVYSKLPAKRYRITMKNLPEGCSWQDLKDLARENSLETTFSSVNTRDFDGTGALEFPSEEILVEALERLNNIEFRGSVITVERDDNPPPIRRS

[10] = biological target: T10, Npl3 RRM1/2 K217A (Saccharomyces cerevisiae, UniProt Q01560 114-282, K217A); experiment: as above; settings: protein: recombinant; (pET28a)
T10 sequence: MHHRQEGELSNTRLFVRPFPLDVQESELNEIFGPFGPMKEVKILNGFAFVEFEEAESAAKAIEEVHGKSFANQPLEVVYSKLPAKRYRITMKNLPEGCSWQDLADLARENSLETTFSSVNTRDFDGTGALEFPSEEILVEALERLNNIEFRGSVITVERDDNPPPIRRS

[11] = biological target: T11, Npl3 RRM1/2 linker 3xGGGGS (Saccharomyces cerevisiae, UniProt Q01560 114-194+=GGGGSGGGGSGGGGS+198-282, internal_change); experiment: as above; settings: protein: recombinant; (pET28a)
T11 sequence: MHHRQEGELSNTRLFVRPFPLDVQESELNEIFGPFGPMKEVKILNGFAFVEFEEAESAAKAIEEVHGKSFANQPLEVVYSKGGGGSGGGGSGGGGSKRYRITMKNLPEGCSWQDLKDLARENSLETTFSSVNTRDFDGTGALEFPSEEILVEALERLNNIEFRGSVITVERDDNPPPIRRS

[12] = biological target: T12, Npl3 RRM1/2 R126A (Saccharomyces cerevisiae, UniProt Q01560 114-282, R126A); experiment: as above; settings: protein: recombinant; (pET28a)
T12 sequence: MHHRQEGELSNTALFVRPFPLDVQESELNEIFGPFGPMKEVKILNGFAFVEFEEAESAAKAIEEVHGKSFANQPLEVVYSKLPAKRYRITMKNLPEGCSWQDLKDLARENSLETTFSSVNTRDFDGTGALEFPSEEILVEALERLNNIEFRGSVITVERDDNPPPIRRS

[13] = biological target: T3, Npl3 RRM1; experiment: as above; settings: protein: recombinant; (pET28a, nickel purification)
[14] = biological target: T1, Npl3 RRM1/2; experiment: NMR titration; UV melting; protein destabilizes the stem; Tm decreased; ITC at 40 °C in NMR buffer: RRM1 and RRM1/2 25 mM Na2HPO4, 25 mM NaH2PO4 pH 6.9; RRM2 100 mM NaCl, 20 mM NaH2PO4 pH 5.5; NMR titrations at 40 °C (U2 SL I 1D spectra at 303 K); settings: protein: recombinant; (pET28a, nickel purification); hairpin

AUGGAGUCCAA (ssRNA) [inverted motif RNA]
Kd [1]: 1200 nM

AGUGGAC (ssRNA) [RRM2 site RNA]
Kd [2]: 2200 nM

AUCCAAUGGAA (ssRNA) [G6A RNA]
Kd [1]: 2200 nM

UUUUUUUU (ssRNA) [polyU 8mer RNA]
binding result [3]: no binding

AUCCAGUGAAA (ssRNA) [G9A RNA]
Kd [1]: 2500 nM

AUCUAGUGGAA (ssRNA) [C4U RNA]
Kd [1]: 1600 nM

AUCCAGUGGAA (ssRNA) [split-iCRAC consensus RNA]
Kd [4]: 2300 nM
Kd [5]: 15300 nM
Kd [6]: 1700 nM
Kd [1]: 500 nM
Kd [7]: 3800 nM
Kd [8]: 12800 nM
Kd [9]: 900 nM
Kd [10]: 7500 nM
Kd [11]: 6800 nM
Kd [12]: 10700 nM

AUCCAA (ssRNA) [RRM1 site RNA]
Kd [13]: ~16200 nM

AUUCAGUGGAA (ssRNA) [C3U RNA]
Kd [1]: 1800 nM

AUCCAGUAGAA (ssRNA) [G8A RNA]
Kd [1]: 1900 nM

GAGCGAAUCUCUUUGCCUUUUGGCUUAGAUC (structured_RNA) [U2 snRNA stem-loop I]
binding result [14]: binds
